This data set in a line: label from the status in PepcDB records.
Turning to “MKRLIVVYLLFISLNVLNAWAQKSPADYVNPIIGATTADEMAGSDHGLGKTFPGVCTPFGLVQLSPDTKTGGDNGPGYSWHHSTIEGFSFTHMSGIGWYGDLGNFLVMPTTGELHTFKGTEENPESGYRSRYSHDREVAKVDGYSVMLDDYGIQVELAAASRSGMMRFTYPQSEVSRIQIDLARRIGGTSTEQYVEVVDDYTIKGWMKCTPDGGGWGDGAGQGNYTAYFYCCFDRPLKNFGLWSADIPEGVERKNASNDDPAYHEYIKNAHVFPRKKIAQGKHLGFYTEFSTREGEQALLKCGISFVSIEGARKNLQSDISDWNFDGVRQRARRQWNEALSGVQVEGEEKDKTIFYTSLYHTMIDPRCFSDVDGAYPGADGKVHYADNFIYRTIFSGWDVFRSQFPLQTITNPRLVDDEINSLIQLAELSGKKYFPRWEFLNAYSGCMVGNPAVSVVADAYNKGIRNYDTRKALEYSLNTVRTFGNNEQGYTPDDLSKTLEYAYTDWCVSTMLRDMGREQEAVAFERKAQSYHQVWCDSVKWFRARSADGSWMPWKGRNVHWQGCIESNNYQQGWFVPHDLEGLISLMGKEYFERELVAFFEGADERFMWGDYYNHPNEPDHQVPFMLNYTSRPWLTQYWTRRICRNAYGDTVNGLCGNEDVGQMSAWYILAAMGFHPICPGNNRYELTSPVFRKVILSLDNRYYKGRTFTIIAHHNSPENVYIQSVSLNGKPLNRLWITHEEITKGGVLEFVLGKDPKH”, the protein production entry is listed as “failed”.

Take “MDTMRSLRFISAEALVSHPQVARQSLDSVAHNLYPLLFKASYLLEQAEVTRAVLGRWPLEEFRLGALLGPGADHPQDLRDRTCRACLEALVRGLADHVLQDRSRRRLRVADLTGIRDVQVQRCPCGRALGRWGRTQLLARTCCELQAEPLAAGRPVEVLADLFVTEGNFEAVVQALRPAGPAPLRVHCPSFRADSLSPSQLLHVLRLAGPGALRKLEVVHNVRLHAGHVQQLLAQVGFPRLASLTLPTKAFDAPPTYASTPDGEDPLLASIARELSKMAQLTELSVAFSTLTGKIPTLLGPLQTPLRVLDLANCALNHTDMAFLADCAHAAHLEVLDLSGHNLVSLYPSTFFRLLSQASRTLRILTLEECGIVDSHVGMLILGLSPCHRLRQLKFLGNPLSARALRRLFTALCELPELRCIEFPVPKDCYPEGAAYPQDELAMSKFNQQKYDEIAEELRAVLLRADREDIQVSTPLFGSFDPDIQETSNELGAFLLQAFKTALENFSRALKQIE”: the protein production result is given as “failed”. The same measure for “MTAEILVFSLIIPLVVAFILPALKPKAATWLSAISFLIPMFVTLGFLLTTKETIEVPIMSLPAPVGEFYLLADPISNAFGFTICLVSAMVAFYSLPYMKHRFEEMLHDGEIRSIEWEFRKYWFLYNLYAVAMLWLVYAGNFILLYIFLEISLLASFLLIYMYGYGNRQWVAVLYFVWTHIAGVLALLGILIIGFENSTMAFNAVKAVGFTAWLLIFLGMLVKLPGLGPHIWLPWAHAEAPTPVSALLSPLTVGLAGYVLLRVYMIDSSFIDQYRDIIIAYAIVSSIYAGFSVFKQKDYKRLLAYSTVSQMGYVLIALCLGSYGLLGVVIQYISHAFGKSILFMTAGAIIASFHGLRDINRMSGMHEYVPTIANAALLGFMTLSGILTIGMFGEFYILAGLTTIYGFNLAVILAVVVVFIISGLYSFYTMKVIYYGTPAGYEKPKVSRLLDVPLYVVAFFSVAFIFPPLSTALLSGLKVVLGIGGVMP”: “failed”; for “AITLTCDEIEQAFLHDHIFNYYQPQFDFRSGAMVGVEALVRYEHPTHGMLSPAVFLPLIEQCGLHEKLFLTVLEKSVSALASIGADLQLSVNISQRNLQHSICDPILAICERYGFPASKLTLEMTEHEVYNGTPTSLANLARLRMYGVGLSIDDFGTGYASLGQLAQLPFTELKIDRSFVHDLATNYKHQQLTNMCLLLAQSLGLHCVVEGVENEETWQYLRQLGVDTCQGYYAAKP”: “failed”; for “MSPIARAALWMTGAIASFSAMAVAGRELSAVHDTFEIMMYRSFVGVLVVSLILSVTGTWHQVSTRALGLHALRNAVHFTGQNLWFFAVTVIPLAQVFALEFTQPLWVILLSPLLLGERMTRVRVAAAVIGFVGILIVARPGASSLNIGILTAALSAIFFAMTTISTKKLTRLASIGCIMFWLTVMQAVLGLVASGHDGQIALPTLGTAPYLVLVGLAGLLAHYCITNALAIAPATVVVPIDFARLPTIAVVGMLLYGEALDIWVLVGAAVIFAGNYLNILAETRNTAR”: “failed”.

Regarding “MAVSSNGGAIKAVIYDCDGVMFDSFEANLAFYQRIMEMMGRPRLSRDNEEQMRILHTYANREVLAHFFPSPGDWEEAVRCAGAIDYRELVPLMIMEEGFREALDTLKGRVGLGVCTNRSTSMDMVLRLFSLDSYFSIVMTASRVTNPKPHPEPLLKVLEHFGIGPREALFVGDSEVDRLSAEAAGVPFVAYKAPLPAAYRMEHHREIIDLLG”, the protein production result was “not failed”.

As to “MFRVLHLADLHLGYRPDLPAPVREEVYRARNRVLQAAVDLALDPRQGISLVLIAGDLFDNHRPEASLVEETIRQLTRLEAAGIQVITVPGNHDEITYNDAVYRREAGRWPGLLVTDPMPAKVATLKVKGDTCHLMAMAYTGGVTRVDGPLKAFPPAEGEGVNLAVFHGSLDWDGGERSLPLDGEALAAAGYDYIALGHIHRGGQRRLGRGLAVYAGMVAGKGFADPGTGSWTIVTLGDGPARVEQVPARVTPWRLVDLDVTAFQEPEELETAVRDALDPGALMQVRLTGSLAFDLDLEGLQARLGHPCPYLELVNETAGWTPEILESIAAEPTIRGLFVRRLQEKLAGSAGPGEAEVIRRAIFRGLLALKGGSR”, the protein production entry is reported as “failed”. Under “GAAGPWRLPIGNSVVASSPPVLQANAETWLDFTDLVFIDPVGTGYSRFVASGDEVRKHFYAVEGDISAMAVVIRRWLEKNDRLVSPKYLAGESYGGIRGPKVVDNLQTKQGVGVNGLILVSPVLDFRDLSGSSLLQYAARLPSMTAVARQQKGKVNRADLADVESYARSEFLTDLVKGEADKEATTRLADRVSALTGIDKTVSRRLAGRFDTREFQREFDRDRGRVTGRFDGAKLGLDPFPDSSAAHFGDPSADSLIAPLTSAAVQLTRSTLNWKPDGSYELLNGSVAEQWDFGRGRQPLESTTQLREILSVDPSLQVLVTGGLFDLAAPYFGTQMVLDQLPPTLAEKRVKFVVYPGGHMFYAEDAARQSLHDEVKAMMK” stands “failed”; under “MSDIRMRADIAADGLTDRPPDRLADEPAEELSHGLLEGLSKEPADELADSPFLLDEPPDYFEDFLLFIFTLMKTTSCLGVAKTTHKLFLCVEPTKEKVAFSDKATSFSAPIEILLFNLDPPSIQGYLRRPLSLKDLHISSARIIDAPLLKPNG”, “failed”.

With “MLSGKKTILVFSMLFATFSSHADNFPKLNQALPSGIDARAIAPVFDFDTDGCLPSAGVSRSGVQNGGLKPSGNITGGCRWSNFLDSSNTLHRYACVNSAGSRYCGSFYALYFLKDQILNGVNSGHRHDWEHVAIWTKNGVVTHGSYSAHGKLTTKEASSIDKQDGHLKFSYHKDGPLTHAFRFSKTNEQAENPYGKFVTPDLISWYLMFGDGINNQELRNLLNAFDYGSASIPLKDGNFLTNLNNGRPAGYPEFTDASITVSK”, the protein production result was “failed”. The same measure for “MEVMRGVRVIEGMNGGRFPYCNVVVVGDVVIDAGAGLEVMRKVNASLLVLSHLHPDHSSGAWLFKDVLAPAEGRITLDTLARRFVAPDLVESWKRFISAATGLREFECERYEEGVVVKEPEIVAVPVKGHTMDHHVFLIEQKVLFGADVDLTSFGPFYGNPEADPYLFEREMDKLLDIDFEIFVSAHSKPVFGKEEAEGRILEFKRKIKEREEIILSLLEEPKSLDELVELSPIYGRKPYAKEILDFFERVMIEKHIEKLEMEGRVRKEDGKYVRV”: “failed”; for “MNIQSELEFKFAHYLINNAVEASFCLGDNWQFLYVNDATCRMTEYSREQLLSMNLQDIDVDFALHDWEEIRQKNNYTFKTRYRSQSGRIFLVEMSLTFLEDQERRFSCVFVREKS”: “not failed”; for “MNIEEAKELVDNSKFYGKTSSVIKAEVRDIIDQLNQPKPEVPQCVADWIEECKEEDLTLKGLFSNSDMPAKIFDWIFGSDENCRLMAEAWINGYTVEKEKLYTVDLPNGQPLVRGINTLYFSQNLATENVKLTESEIRKDFEWAWQFAEEVTE”: “failed”. On to “MQNNSYGYAVSVRVGGKEHRHWERYDIDSDFLIPADSFDFVIGRLGPEAAIPDLSGESCEVVIDGQIVMTGIIGSQRHGKSKGSRELSLSGRDLAGFLVDCSAPQLNVKGMTVLDAAKKLAAPWPQIKAVVLKAENNPALGKIDIEPGETVWQALTHIANSVGLHPWLEPDGTLVVGGADYSSPPVATLCWSRTDSRCNIERMDIEWDTDNRFSEVTFLAQSHGRSGDSAKHDLKWVYKDPTMTLHRPKTVVVSDADNLAALQKQAKKQLADWRLEGFTLTITVGGHKTRDGVLWQPGLRVHVIDDEHGIDAVFFLMGRRFMLSRMDGTQTELRLKEDGIWTPDAYPK”, for which the protein production entry is given as “not failed”.

Take “MEKKANHGDDVQESVPIIHSQVVKIKREFEKIQHPSLKQPEMPLVFREIMGPRRSRSPLGLGERERSIPVGN”: the protein production result is listed as “failed”. As to “MTRVKSKLDEELSSPWFYTVCTMGGMLSAGTTHLAITPLDVLKVNMQVNPVKYNSIPSGFSTLLREHGHSYLWRGWSGKLLGYGVQGGCRFGLYEYFKTLYSDVLPNHNRTSIYFLSSASAQIFADMALCPFEAIKVRVQTQPMFAKGLLDGFPRVYRSEGLAGFHRGLFPLWCRNLPFSMVMFSTFEQSVEFIYQKIIQKRKQDCSKAQQLGVTCLAGYTAGAVGTIISNPADVVLSSLYNNKAKNVLQAVRNIGFVGLFTRSLPVRITIVGPVITLQWFFYDAIKVLSGFPTSGGVKKPVDAAKLSV”, the protein production entry was “failed”. Under “MSLVMSGEKMKVIIVEDEFLAQQELSWLINTHSQMEIVGSFDDGLDVLKFLQHNKVDAIFLDINIPSLDGVLLAQNISQFAHKPFIVFITAWKEHAVEAFELEAFDYILKPYQESRIINMLQKLTTAWEQQNNAAEGHHHHHH” stands “not failed”; under “MVKTAVLMATYNGEIFISEQLDSIRQQTLKPDYVLLRDDCSTDETVNVVNNYIAKHELEGWKIVKNDKNLGWRLNFRQLLIDVLAYEVDYVFFSDQDDIWYLDKNERQFAIMSDKPQIEVLSADVDIKTMSTEASVPHFLTFSSSDRISQYPKVYDYQTFRPGWTIAMKRDFAQAIADNWTFGANISHDNLIETTASIIGNGYNLNESVGVHIRYGGNASGNSKFVLNWKSPKTQHITGLKTFVDFYETMQKVVNKYQNDVALNQRLAFEKERLEASKLSLIHNSAFVIKNWRLYNSNSGRMRDLLFAFKKLEHHHHHH”, “not failed”.

On to “MAAWVIWFIIAGILFIAEMLSITFYMLWLGIGAVVGGLIALFAPDALLLQVTVGAIVSLTLTFFTKRISKNFREAKGFTDTVDMLVGKRGIVMQAITNEANGIVKVDGDTWTAIADSSIDAGEKVVVIKRHSTILQVKKESE”, for which the protein production result is listed as “failed”.

As for “KLAYRHLIQPESAVRKLMILVNGRAENMLKWSELAYDFYHQGYDVLLFDHRGQGYSQRIIPQKGHLDEFRFYVDDMAKIIEKVTALFSYSTQHLLAHSMGALIATYYLANYDHHINKAVLSSPFYGILLKHPIRDELIITLMNILGQGERYVFGKGAYQQAHLEYNELTFCKTRMKWMNRINRKNPAINLGGPTFRWVHLCLNAIKRLPKVIPKIEIPILILQAEKEKIVDNKNLEKLTALFPNARCEVILNAKHEVLFEKDNVRRNVLKSVNHFLN”, the protein production entry was “failed”.

Source of the values: a protein production outcome set (Wang et al. 2014).
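Note: failed if final PepcDB status was selected cloned or expressed and not failed if soluble or beyond.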
